This note sets out measurements from paper PMC4113718.

This test has as its target CXC chemokine receptor (CXCR) 4 on THP-1 cells (human (endogenous in THP-1)) (UniProt P61073).

Sequence of CXC chemokine receptor (CXCR) 4 on THP-1 cells (human (endogenous in THP-1)) (P61073 whole entry): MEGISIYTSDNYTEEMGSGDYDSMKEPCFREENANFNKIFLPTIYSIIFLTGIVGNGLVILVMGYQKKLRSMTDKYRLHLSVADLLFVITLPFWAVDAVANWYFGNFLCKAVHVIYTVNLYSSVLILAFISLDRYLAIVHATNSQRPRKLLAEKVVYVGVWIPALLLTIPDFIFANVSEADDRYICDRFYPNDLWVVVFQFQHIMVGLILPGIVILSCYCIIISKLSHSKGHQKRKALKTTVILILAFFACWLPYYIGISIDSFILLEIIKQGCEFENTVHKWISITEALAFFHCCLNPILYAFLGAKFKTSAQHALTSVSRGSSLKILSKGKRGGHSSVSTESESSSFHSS

As to “Ub(1–74)VV (from UniProt P0CG47 1-76) (ligand)”, the bottom plateau (%), reduction of cAMP levels in forskolin-stimulated THP-1 cells came to 46.7%.

Regarding “Ub(1–74)NN (from UniProt P0CG47 1-76) (ligand)”, the LogIC50 (pM), reduction of cAMP levels in forskolin-stimulated THP-1 cells was 2.3 log(pM) and the bottom plateau (%), reduction of cAMP levels in forskolin-stimulated THP-1 cells worked out at 54.1%.

Substance “Ub(1–74)RR (from UniProt P0CG47 1-76) (ligand)” registered a bottom plateau (%), reduction of cAMP levels in forskolin-stimulated THP-1 cells of 42.8%.
